These results are taken from patent US20260242419A1, “A CYCLIC PEPTIDE FOR TRAPPING INTERLEUKIN-1 BETA” (Merck Sharp & Dohme LLC, priority 2023, published 2026).

To fix the notation:
B1: SEQ ID NO: 180 (peptide)
peptide: [Bip(4'-COOH)][Ala(1-bicyclo(1.1.1)pentyl)][Phe(4-COOH)]G[Pro(cis-4-F)][Trp(βS-Me,4-F)][Aib]SW[Aib][Ala(piperidin-4-yl)]QSG[dPro(4R-(4-pyridylmethyl))]
modifications: lactam (positions not given here); also: macrolactam ring, closure sites not given here
B2: SEQ ID NO: 181 (peptide)
peptide: [Bip(4'-COOH)][Ala(1-bicyclo(1.1.1)pentyl)][Phe(4-COOH)]G[Pro(cis-4-F)][Trp(βS-Me,4-F)][Aib]SW[d(αMeS)][Ala(piperidin-4-yl)]QSG[dPro(4R-(4-pyridylmethyl))]
modifications: lactam (positions not given here); also: macrolactam ring, closure sites not given here
B3: SEQ ID NO: 172 (peptide)
peptide: cyclo([Bip(4'-COOH)][Ala(1-bicyclo(1.1.1)pentyl)][Phe(4-COOH)]G[Pro(cis-4-F)][Trp(βS-Me,4-F)][Aib]SW[d(αMeS)][Ala(piperidin-4-yl)]Q[Dab]G[dPro(4R-Bzl(4-F))])
modifications: ring closure inferred; not fully specified (bridges); printed as Bip4CO2H-AlaPent-Phe4COOH-G-Proc4F-SbMeW4F-Aib-S-W-daMeS-AlaPip4-Q-Dab-G-dProc4Bn4F, cyclic (macrolactam)
B4: SEQ ID NO: 173 (peptide)
peptide: cyclo([Bip(4'-COOH)][Ala(1-bicyclo(1.1.1)pentyl)][Phe(4-COOH)]G[Pro(cis-4-F)][Trp(βS-Me,4-F)][Aib]SW[αMeK][Ala(morpholin-4-yl)]QSG[dPro(4R-Bzl(4-F))])
modifications: ring closure inferred; not fully specified (bridges); printed as Bip4CO2H-AlaPent-Phe4COOH-G-Proc4F-SbMeW4F-Aib-S-W-aMeK-AlaMph-Q-S-G-dProc4Bn4F, cyclic (macrolactam)
B5: SEQ ID NO: 174 (peptide)
peptide: cyclo([Bip(4'-COOH)][Ala(1-bicyclo(1.1.1)pentyl)][Phe(4-COOH)]G[Pro(cis-4-F)][Trp(βS-Me,4-F)][Aib]SW[αMeK][Ala(morpholin-4-yl)]Q[Dab]G[dPro(4R-Bzl(4-F))])
modifications: ring closure inferred; not fully specified (bridges); printed as Bip4CO2H-AlaPent-Phe4COOH-G-Proc4F-SbMeW4F-Aib-S-W-aMeK-AlaMph-Q-Dab-G-dProc4Bn4F, cyclic (macrolactam)
B6: SEQ ID NO: 182 (peptide)
peptide: [Bip(4'-COOH)][Ala(1-bicyclo(1.1.1)pentyl)][Phe(4-COOH)]G[cisHyp][Trp(βS-Me,4-F)][Aib][aThr]W[d(αMeD)][Ala(pyrimidin-5-yl)]Q[Dab]G[dPro(4R-(4-pyridylmethyl))]
modifications: lactam (positions not given here); also: macrolactam ring, closure sites not given here
B7: SEQ ID NO: 179 (peptide)
peptide: [Bip(4'-COOH)][Ala(1-bicyclo(1.1.1)pentyl)][Phe(4-COOH)]G[Pro(cis-4-F)][Trp(βS-Me,4-F)][Aib]SW[Aib][Ala(morpholin-4-yl)]QSG[dPro(4R-(4-pyridylmethyl))]
modifications: lactam (positions not given here); also: macrolactam ring, closure sites not given here
B8: SEQ ID NO: 176 (peptide)
peptide: cyclo([Bip(4'-COOH)][Ala(1-bicyclo(1.1.1)pentyl)][Phe(4-COOH)]G[Pro(cis-4-F)][Trp(βS-Me,4-F)][Aib]EW[Aib][Ala(piperidin-4-yl)]QSG[dPro(4R-(4-pyridylmethyl))])
modifications: ring closure inferred; not fully specified (bridges); printed as Bip4CO2H-AlaPent-Phe4COOH-G-Proc4F-SbMeW4F-Aib-E-W-Aib-AlaPip4-Q-S-G-dProc4CH24Pal, cyclic (macrolactam)
B9: SEQ ID NO: 183 (peptide)
peptide: [Phe(4-(4-Ac-piperazinyl))][4Pal][Phe(4-COOH)]G[Pro(cis-4-F)][Trp(βS-Me,4-F)][Aib]SW[Aib][Ala(pyrimidin-5-yl)]Q[Dab]G[dPro(4R-Bzl(4-F))]
modifications: lactam (positions not given here); also: macrolactam ring, closure sites not given here
B10: SEQ ID NO: 178 (peptide)
peptide: cyclo([Bip(4'-COOH)][Ala(1-bicyclo(1.1.1)pentyl)][Phe(4-COOH)]G[Pro(cis-4-F)][Trp(βS-Me,4-F)][Aib]EW[d(αMeS)][Ala(piperidin-4-yl)]QSG[dPro(4R-(4-pyridylmethyl))])
modifications: ring closure inferred; not fully specified (bridges); printed as Bip4CO2H-AlaPent-Phe4COOH-G-Proc4F-SbMeW4F-Aib-E-W-daMeS-AlaPip4-Q-S-G-dProc4CH24Pal, cyclic (macrolactam)
B11: SEQ ID NO: 177 (peptide)
peptide: cyclo([Bip(4'-COOH)][Ala(1-bicyclo(1.1.1)pentyl)][Phe(4-COOH)]G[Pro(cis-4-F)][Trp(βS-Me,4-F)][Aib]EW[d(αMeS)][Ala(morpholin-4-yl)]QSG[dPro(4R-(4-pyridylmethyl))])
modifications: ring closure inferred; not fully specified (bridges); printed as Bip4CO2H-AlaPent-Phe4COOH-G-Proc4F-SbMeW4F-Aib-E-W-daMeS-AlaMph-Q-S-G-dProc4CH24Pal, cyclic (macrolactam)
B12: SEQ ID NO: 175 (peptide)
peptide: cyclo([Bip(4'-COOH)][Ala(1-bicyclo(1.1.1)pentyl)][Phe(4-COOH)]G[Pro(cis-4-F)][Trp(βS-Me,4-F)][Aib]SW[αMeK][Ala(piperazin-1-yl)]QSG[dPro(4R-Bzl(4-F))])
modifications: ring closure inferred; not fully specified (bridges); printed as Bip4CO2H-AlaPent-Phe4COOH-G-Proc4F-SbMeW4F-Aib-S-W-aMeK-AlaPiperaz-Q-S-G-dProc4Bn4F, cyclic (macrolactam)

Starred links: 1 amine or outer side, 2 acyl side, 3 side chain; linkers in the order of their positions; H or OH if unused. Non-standard residues stand in square brackets, D forms with d. No end group written: not given here. Phe(4-(4-Ac-piperazinyl)) = CC(=O)N1CCN(c2ccc(C[C@H](N)C(=O)O)cc2)CC1; dPro(4R-(4-pyridylmethyl)) = O=C(O)[C@H]1C[C@@H](Cc2ccncc2)CN1; Ala(piperidin-4-yl) = O=C([C@H](CC1CCN([*:3])CC1)N[*:1])[*:2]; Trp(βS-Me,4-F) = C[C@@H](c1c[nH]c2cccc(F)c12)[C@H](N)C(=O)O; Bip(4'-COOH) = N[C@@H](Cc1ccc(-c2ccc(C(=O)O)cc2)cc1)C(=O)O; Ala(1-bicyclo(1.1.1)pentyl) = N[C@@H](CC12CC(C1)C2)C(=O)O; dPro(4R-Bzl(4-F)) = O=C(O)[C@H]1C[C@@H](Cc2ccc(F)cc2)CN1; Ala(morpholin-4-yl) = N[C@@H](CN1CCOCC1)C(=O)O; Ala(piperazin-1-yl) = N[C@@H](CN1CCNCC1)C(=O)O; Ala(pyrimidin-5-yl) = N[C@@H](Cc1cncnc1)C(=O)O; Phe(4-COOH) = N[C@@H](Cc1ccc(C(=O)O)cc1)C(=O)O; Pro(cis-4-F) = O=C(O)[C@@H]1C[C@H](F)CN1; cisHyp = O=C(O)[C@@H]1C[C@H](O)CN1; d(αMeD) = C[C@@](N)(CC(=O)O)C(=O)O; 4Pal = N[C@@H](Cc1ccncc1)C(=O)O; aThr = C[C@H](O)[C@H](N)C(=O)O; d(αMeS) = C[C@@](N)(CO)C(=O)O; Cba = N[C@@H](CC1CCC1)C(=O)O; αMeK = C[C@](N)(CCCCN)C(=O)O; Dab = NCC[C@H](N)C(=O)O; Aib = CC(C)(N)C(=O)O

This assay deals with Recombinant human IL-1β (BioLegend 579404) (human, UniProt P01584 117-269). The experiment in a line: cell-based or functional assay.
Consider B1, for which the “MRC5 IC50” value turned out to be 27 pM.
For cyclo([Bip(4'-COOH)][Ala(1-bicyclo(1.1.1)pentyl)][Phe(4-COOH)]G[Pro(cis-4-F)][Trp(βS-Me,4-F)][Aib]SW[Aib][Ala(piperidin-4-yl)]Q[Dab]G[dPro(4R-Bzl(4-F))]) (ring closure inferred) [SEQ ID NO: 169], the “MRC5 IC50” value turned out to be 19 pM.
To cyclo([Bip(4'-COOH)][Ala(1-bicyclo(1.1.1)pentyl)][Phe(4-COOH)]G[Pro(cis-4-F)][Trp(βS-Me,4-F)][Aib]SW[Aib][Ala(morpholin-4-yl)]Q[Dab]G[dPro(4R-Bzl(4-F))]) (ring closure inferred) [SEQ ID NO: 167] belongs 13 pM; to B2, 21 pM.
In the case of cyclo([Bip(4'-COOH)][Ala(1-bicyclo(1.1.1)pentyl)][Phe(4-COOH)]G[Pro(cis-4-F)][Trp(βS-Me,4-F)][Aib]SW[d(αMeS)][Ala(piperazin-1-yl)]Q[Dab]G[dPro(4R-Bzl(4-F))]) (ring closure inferred) [SEQ ID NO: 171], the “MRC5 IC50” value worked out at 16 pM.
With B3, the “MRC5 IC50” value was 16 pM.
In the case of cyclo([Bip(4'-COOH)][Ala(1-bicyclo(1.1.1)pentyl)][Phe(4-COOH)]G[Pro(cis-4-F)][Trp(βS-Me,4-F)][Aib]EW[αMeK][Ala(morpholin-4-yl)]Q[Dab]G[dPro(4R-Bzl(4-F))]) (ring closure inferred) [SEQ ID NO: 165] it was 22 pM; in that of cyclo([Bip(4'-COOH)][Cba][Phe(4-COOH)]G[cisHyp][Trp(βS-Me,4-F)][Aib]SW[d(αMeD)][Ala(pyrimidin-5-yl)]Q[Dab]G[dPro(4R-(4-pyridylmethyl))]) (ring closure inferred) [SEQ ID NO: 164], 39 pM; in that of cyclo([Bip(4'-COOH)][Ala(1-bicyclo(1.1.1)pentyl)][Phe(4-COOH)]G[Pro(cis-4-F)][Trp(βS-Me,4-F)][Aib]SW[d(αMeS)][Ala(morpholin-4-yl)]Q[Dab]G[dPro(4R-Bzl(4-F))]) (ring closure inferred) [SEQ ID NO: 170], 15 pM.
As for B4, the “MRC5 IC50” value was found to be 37 pM.
In the case of B5, the “MRC5 IC50” value was found to be 25 pM.
Regarding B6, the “MRC5 IC50” value stood at 49 pM.
In the case of B7 it was 29 pM; in that of B8, 36 pM; in that of B9, 25 pM.
As for B10, the “MRC5 IC50” value was 41 pM.
B11: the “MRC5 IC50” value was 31 pM.
For cyclo([Bip(4'-COOH)][Ala(1-bicyclo(1.1.1)pentyl)][Phe(4-COOH)]G[Pro(cis-4-F)][Trp(βS-Me,4-F)][Aib]SW[Aib][Ala(piperazin-1-yl)]Q[Dab]G[dPro(4R-Bzl(4-F))]) (ring closure inferred) [SEQ ID NO: 168], the “MRC5 IC50” value came to 18 pM.
As for cyclo([Bip(4'-COOH)][Ala(1-bicyclo(1.1.1)pentyl)][Phe(4-COOH)]G[Pro(cis-4-F)][Trp(βS-Me,4-F)][Aib]EW[αMeK][Ala(piperidin-4-yl)]Q[Dab]G[dPro(4R-Bzl(4-F))]) (ring closure inferred) [SEQ ID NO: 166], the “MRC5 IC50” value came out at 39 pM.
B12: the “MRC5 IC50” value was 37 pM.
